Patent US20230235029A1 (INTEGRATED BIOTHERAPEUTICS, published 2023)

B1: R13 (antibody, V domains shown)
VH: EVQLVESGAGLVQPGGSLRLSCAASGFTFSNSWMTWVRQAPGKGLEWLARIKRKADGETADYAASVKGRFTISRDDSKNTLYLQMNSLKTEDTAVYYCTTYNWNFNFDFWGQGVLVTVSS
VL: DIQMTQSPSSLSASVGDRVTITCRASQDISPYLNWYQQKPGKAPKLLIYYGNRLESGVPSRFSGSGSGTDLTLTISSLQPEDFATYYCQQYYRLPLTFGGGTKVETK
B2: R15 (antibody, V domains shown)
VH: EVQLVESGAGLVRPGGSLRLSCAASGFTFSNTWMTWVRQAPGRGLEWLARIKRKADGETADYAASVKGRFTISRDDSKHTLFLQMNSLKTEDTAVYYCTTYNWNFNFDNWGQGVLVTVSS
VL: DIQMTQSPSSLSASVGDRVTITCRASQAFSSYLNWYQQKPGKAPKLLIYYANRLESGVPSRFSGSESGTEFTLTISSLQPEDFATYYCQQYYRLPLTFGGGTKVEIK
B3: R29 (antibody, V domains shown)
VH: EVQLVESGAGLVQPGGSLRLSCIASGFTFSNSWMTWVRQAPGRGLEWIARIKRKADGETADYAASVKGRFTISRDDSKNTLYLQMNSLKTEDTAVYYCTTYNWNFNFDYWGQGVLVTVSS
VL: DIQMTQSPSSLSASVGDRVTITCRASQDISPYLNWYQQKPGKAPKLLIYYGNRLESGVPSRFSGSGSGTDLTLTISSLQPEDFATYYCQQYYRLPLTFGGGTKVEIK
B4: R39 (antibody, V domains shown)
VH: EVQLVESGAGLVQPGGSLRLSCAGSGFTFSNTWMTWVRQAPGKGLEWVARIKRKADGETADYAASVKGRFTISRDDSKNTLYLQMNSLKTEDTAVYYCTTYNWNFNFDYWGQGVLVTVSS
VL: DIQMTQSPSSLSASVGDRVTITCRASQDISPYLNWYQQKPGKAPKLLIYYGNRLESGVPSRFSGSGSGTDLTLTISSLQPEDFATYYCQQYYRLPLTFGGGTKVEIK
B5: R24 (antibody, V domains shown)
VH: EVQLVESGAGLVQPGGSLRLSCAGSGFTFSNTWMTWVRQAPGKGLEWVARIKRKADGETADYAASVKGRFTISRDDSKSTLYLQMNSLKTEDTAVYYCTTYNWNFNFDYWGQGVLVTVSS
VL: DIQMTQSPSSLSASVGDRVTITCRASQDISPYLNWYQQKPGKAPKLLIYYGNRLESGVPSRFSGSGSGTDLTLTISSLQPEDFATYYCQQYYRLPLTFGGGTKVESK
B6: R25 (antibody, V domains shown)
VH: EVQLVESGAGLVQPGGSLRLSCAASGFTFSNSWMTWVRQAPGKGLEWVGRIKRKADGETADYAASVKGRFTISRDDSKNTLYLQMNSLKTEDTAVYYCTTYNWNFNFDHWGQGVLVTVSS
VL: DIQMTQSPSSLSASVGDRVTITCRASQDISPYLNWYQQKPGKAPKLLIYYGNRLESGVPSRFSGSGSGTDLTLTISSLQPEDFATYYCQQYYRLPLTFGGGTKVEIK
B7: R45 (antibody, V domains shown)
VH: EVQLVESGGGLAKPGGSLRLSCAASGFTFGDHWMSWVRQAPGNGLQWISAIDRAGGSTFYADSVKGRFTISRENAKNTLYLQIDSLRPEDTAVYFCARDQGRTVGYLDYWGQGVLVTVSS
VL: QSALTQPRSVSGSPGQSVTISCTGTSSDIGSYTYVSWYRQHPGTAPKLIIYDVDERPSGVSYRFSGSKSGNTASLTISGLQAEDEADYYCSSYAGRNTWVFGGGTRLTVL
B8: R79 (antibody, V domains shown)
VH: EVQLVESGGGLAKPGGSLRLSCAASGFTFNDYWLFWVRQAPGRGLEWISTINRPGSSTFYADSVKGRFTISRENANNALYLQMDSLRPEDTAVYYCARDQGRTVGYLDYWGQGVLVTVSS
VL: QSALTQPRSVSGSPGQSVTISCTGTSSDIGSYSYVSWYQQHPGTAPKLIIYDDSERPSGVSDRFSGSKSGNTASLTISGLQAEDEADYYCSSYAGSNTWVFGGGTRLTVL
B9: R50 (antibody, V domains shown)
VH: QVQLQESGPGLVKPSETLSLTCAVSGDSISSYWWNWIRQPPGKGLEWIGEIYGYSGSTNYNASLKSRVTISKDASKKQLSLKLSSVTAADTAVYYCARDPLNQDAFDFWGLGLRVTVSS
VL: QSALTQPPSVSGSPGQSVTISCTGTSSDIGGYTYVSWYQQHPGKAPKLMIYDVSRRPSGVSDRFSGSKSGNTASLTISGLQAEDEADYYCSSYAGRNALLFGGGTRLTVL
B10: R63 (antibody, V domains shown)
VH: QVQLQESGPGLVKASETLSLTCAVSGASISSYWWNWIRLSPGKGLEWIGEIYGYSGSTSYNSSLKSRVSISRDASKNQFSLKLSSVTAADTAVYYCARDPLNHDAFDFWGRGFRVTVSS
VL: QSALTQPPSVSGSPGQSVTISCAGTSSDIGGYTYVSWYQQHPGKAPKLMIYDVNERPSGVSDRFSGSKSGNTASLTISGLQAEDEADYYCSSYAGSKTVSFGGGTRLSVL
B11: R55 (antibody, V domains shown)
VH: QVQLQESGPGLVKPSETLSLTCAVSGDSISSYWWNWIRQPPGKGLEWIGEIYGYSGSTNYNPSLKSRVTISKDASKKQLSLKLSSVTAADTAVYYCARDPLNQDAFDFWGLGLRVTVSS
VL: QSALTQPPSVSGSPGQSVTISCTGTSSDIGGYTYVSWYQQHPGKAPKLMIYDVSRRPSGVSDRFSGSKSGNTASLTISGLQAEDEADYYCSSYAGRNALLFGGGTRLTVL
B12: R53 (antibody, V domains shown)
VH: QVQLQESGPGLVKPSETLSLTCAVSGASISSYWWNWIRQPPGKGLEWIGEIYGYSGSTYYSPSLKSRVTISKDASKNQFSLKLSSATAADTAVYYCVRDPLNQDAFDFWGQGLRVTVSS
VL: QSALTQPPSVSGSPGQSVTISCTGTSSDIGSYDYVSWYQQHPGKAPKLMMYDVSKRPSGVFDRFSGSKSGNTASLTISGLQADDEAAYFCSSYAGRRILLFGGGTRLTVL
B13: R64 (antibody, V domains shown)
VH: QVQLQESGPGLVKPSETLSLTCAVSGASMSDYWWNWIRQPPGKGLEWIGEIYGYSGSSYYNPSLKSRVSISKDASKKQLSLKLSSVTAADTAVYYCARDPLNQDAFDFWGLGLRVTVSS
VL: QSALTQPPSVSGSPGLSVTISCTGSGSDIGGYDYVSWYQQHPGKAPKLMIYGVNKRPSGVSDRFSGSKSGNTASLSISGLQAEDEADYYCSSYAGSHTLLFGGGSRLTVL

Assays:
Assay in all cases: cell-based or functional assay
[1] = molecular target: T1, Marburg virus Angola GP on rVSV pseudotype (Marburg virus, Angola strain, UniProt Q1PD50 19-681)
T1 sequence: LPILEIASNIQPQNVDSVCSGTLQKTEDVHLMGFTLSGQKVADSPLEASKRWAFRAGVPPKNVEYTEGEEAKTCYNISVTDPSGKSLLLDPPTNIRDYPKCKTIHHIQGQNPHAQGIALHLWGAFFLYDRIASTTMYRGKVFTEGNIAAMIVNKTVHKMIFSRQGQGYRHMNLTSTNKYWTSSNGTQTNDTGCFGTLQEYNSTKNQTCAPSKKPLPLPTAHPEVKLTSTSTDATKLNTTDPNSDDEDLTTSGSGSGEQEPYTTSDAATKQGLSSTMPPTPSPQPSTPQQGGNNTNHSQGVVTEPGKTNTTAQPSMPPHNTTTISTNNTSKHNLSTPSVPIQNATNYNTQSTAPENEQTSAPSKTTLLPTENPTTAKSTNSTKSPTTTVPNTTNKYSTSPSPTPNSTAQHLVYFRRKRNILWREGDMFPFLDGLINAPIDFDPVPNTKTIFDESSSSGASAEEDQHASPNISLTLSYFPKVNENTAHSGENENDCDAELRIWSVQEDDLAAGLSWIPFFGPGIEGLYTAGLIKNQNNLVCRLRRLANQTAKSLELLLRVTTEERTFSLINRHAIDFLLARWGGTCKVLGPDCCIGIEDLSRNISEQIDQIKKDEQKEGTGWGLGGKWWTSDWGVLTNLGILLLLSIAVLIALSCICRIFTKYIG

[2] = molecular target: T2, RAVV GP on rVSV pseudotype (VSV-MARV RAVV GP) (Ravn virus, UniProt Q1PDC7 19-681)
T2 sequence: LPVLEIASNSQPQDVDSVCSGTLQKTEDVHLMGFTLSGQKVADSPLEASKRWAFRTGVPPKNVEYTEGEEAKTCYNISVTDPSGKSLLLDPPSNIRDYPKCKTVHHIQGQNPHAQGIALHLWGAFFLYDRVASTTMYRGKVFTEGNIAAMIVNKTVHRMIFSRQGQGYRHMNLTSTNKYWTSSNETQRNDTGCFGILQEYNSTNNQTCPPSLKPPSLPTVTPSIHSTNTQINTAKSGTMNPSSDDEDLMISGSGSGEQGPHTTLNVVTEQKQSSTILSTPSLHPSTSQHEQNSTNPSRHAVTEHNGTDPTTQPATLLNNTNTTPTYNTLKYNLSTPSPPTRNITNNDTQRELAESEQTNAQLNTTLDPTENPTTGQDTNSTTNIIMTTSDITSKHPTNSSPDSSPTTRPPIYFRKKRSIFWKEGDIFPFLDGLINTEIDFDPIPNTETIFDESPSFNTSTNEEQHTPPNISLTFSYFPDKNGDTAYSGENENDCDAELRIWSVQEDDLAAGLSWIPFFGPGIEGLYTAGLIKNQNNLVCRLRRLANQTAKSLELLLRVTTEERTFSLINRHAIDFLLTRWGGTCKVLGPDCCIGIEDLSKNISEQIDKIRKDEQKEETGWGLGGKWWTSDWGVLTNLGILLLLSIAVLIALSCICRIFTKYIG

[3] = molecular target: T3, Marburg virus Musoke GP on rVSV pseudotype (VSV-MARV Musoke GP) (Marburg virus, Musoke strain, UniProt P35253 19-681)
T3 sequence: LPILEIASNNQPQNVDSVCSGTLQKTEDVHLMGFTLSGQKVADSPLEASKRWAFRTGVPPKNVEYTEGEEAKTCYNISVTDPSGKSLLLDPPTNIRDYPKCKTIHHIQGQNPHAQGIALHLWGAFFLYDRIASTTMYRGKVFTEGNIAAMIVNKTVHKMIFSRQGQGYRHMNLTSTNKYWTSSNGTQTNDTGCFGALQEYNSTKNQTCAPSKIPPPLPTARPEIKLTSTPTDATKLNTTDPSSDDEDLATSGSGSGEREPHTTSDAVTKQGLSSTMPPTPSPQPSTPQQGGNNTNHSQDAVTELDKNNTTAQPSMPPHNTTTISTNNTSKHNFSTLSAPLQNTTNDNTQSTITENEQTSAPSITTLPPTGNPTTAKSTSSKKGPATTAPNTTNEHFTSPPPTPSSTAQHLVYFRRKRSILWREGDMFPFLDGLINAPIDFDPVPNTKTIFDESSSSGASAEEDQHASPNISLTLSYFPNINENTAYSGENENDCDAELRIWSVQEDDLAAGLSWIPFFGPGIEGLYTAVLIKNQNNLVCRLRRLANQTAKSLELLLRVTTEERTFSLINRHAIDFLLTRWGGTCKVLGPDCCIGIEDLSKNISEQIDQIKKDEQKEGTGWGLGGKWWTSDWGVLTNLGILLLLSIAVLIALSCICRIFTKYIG

| Binder | NT50 [1] [µg/mL] | NT50 [2] [µg/mL] | NT50 [3] [µg/mL] |
| --- | --- | --- | --- |
| B1 | 0.03 | 0.07 | 0.03 |
| B2 | 0.04 | 0.08 | 0.03 |
| B3 | 0.02 | 0.03 | 0.02 |
| B4 | 0.03 | 0.07 | 0.04 |
| B5 | 0.04 | 0.06 | 0.03 |
| B6 | 0.03 | 0.04 | 0.01 |
| B7 | 0.1 | 0.27 | 0.1 |
| B8 | 0.21 | 0.45 | 0.17 |
| B9 | 0.05 | 0.21 | 0.06 |
| B10 | 0.04 | 0.17 | 0.05 |
| B11 | 0.07 | 0.24 | 0.07 |
| B12 | 0.02 | 0.07 | 0.02 |
| B13 | 0.02 | 0.09 | 0.03 |
